In the DeepSol protein solubility set:

Experiment: soluble on expression in E. coli; label from the status in PepcDB or PDB records

Sequence | soluble on expression in E. coli
MGSDKIHHHHHHMTNAFKGIPEELLKPHASPCVSIFMPTSRTFPDNTQDPVRFKNLVSRAEADGIAFSTKREMAPLIERLRLLQDDASFWNHTLDGLAVFISPDYFRIFRLQQSVLEQAHVTDAFYIRPLIRIYQIVERFQVLALTRSEVKLYEGTRDHLDEIELAPEVPKTMTDALGTEITPPHMTIASYGGTGTAMRHGHSSRKDEEALDNERFFRAVDQGINEYHSSSSGLPLVLVALPEHQGLFRSISRNQRLVAEGIEIDPAALGLEAMRQKAWQVMEPYRERKIDQMIARFREAEGGKLGSDNPYAIAIAAVAGNVSHLLLDGQKFWPGQIDPVSGDILLDEASQASGRDVFEELGAAVLARGGEVLVLPSERMPSASGVAAIFRHD | not soluble
MSLDTDSGENNKDSSIPQGGVTVSPEVLAHRPLIEKYGKEYGIEDYVSYILAIMQVESGGTAEDVMQSSESLGLPPNSLSTEESIKQGVKYFSELLTSAEQQGVDIDSVIQSYNYGGGFLNYVRSHGKKYTYELAEQFSKEKSGGQKADYPNPIAIPVNGGWRYNYGNQFYVQLVSQYLTDTSPTEFDDETVQVIMDEALKYEGFPYVFGGASPTTSFDCSGLIQWVYDKAGISLPRVAQDQYDATQEISMEEAQAGDLIFFHSTYNAGTYVTHVAIYLEGNRFYHAGDPIGYGDLSSRYWQDHLIGARRVIHNEGHHHHHH | soluble
MRLFAINAGNFKLDGGAMFGVVPKSIWNKLNPADSNNLCTWATRCLLIENGKQLVLIDTGLGDKQDESFFRHYYRDTPQTWDTLLKPYGFHSSDITDVVLTHLHFDHVGGALEKKGDKIVPTFSNARYWSNTRHWDWAVEPNPREKASFLKDNLFPLQESGQLYFVDTQNLPFEWMDFIFVDGHTEQQMLPLITTPAEKKILYAADLLPSAGHIPMPYIMSYDVRPLVSMQEKERVFNQVLAEDWTVFLEHDLSNACISLQQTEKGIRLNNVFQISDFNLEHHHHHH | not soluble
SGIMHQINNVYSLTPLSLPMELTPSCNEFYLKTWSEWEKNGTPGEQRNIAFNRLKICLQNQEAELNLSELDLKTLPDLPPQITTLEIRKNLLTHLPDLPPMLKVIHAQFNQLESLPALPETLEELNAGDNKIKELPFLPENLTHLRVHNNRLHILPLLPPELKLLVVSGNRLDSIPPFPDKLEGLALANNFIEQLPELPFSMNRAVLMNNNLTTLPESVLRLAQNAFVNVAGNPLSGHT | not soluble
KPGKQIPTLEDAKKELKIPDQDKEQNGNIARQRHVVNAYAVGRIADEEGLFRFQLDDKGKWGNPQLLVKKVRHMKVRYIYVSGCPEDDDAGKEETFKYTDKFDSAQNAVTPAGVEVLLSSGTDTKIAASSDNHIYAYRIDATIRGGNVCANRTL | not soluble
MGSDKIHHHHHHDETDPILTQKNWDGTATYFQSSDEHGFSMYYKPQVGFVGDPMPFYDPVAKDFKVMYLQDYRPNPEATYHPIFGVATKDGATYESLGELISCGGRDEQDAAIGTGGTIYNPADKLYYTFYTGNKFKPSSDQNAQVVMVATSPDFKTWTKNRTFYLKGDTYGYDKNDFRDPFLFQTEDGVYHMLIATRKNGKGHIAEFTSADLKEWESAGTFMTMMWDRFYECPDVFKMGDWWYLIYSEQASFMRKVQYFKGRTLEDLKATTANDAGIWPDNREGMLDSRAFYAGKTASDGTNRYIWGWCPTRAGNDNGNVGDVEPEWAGNLVAQRLIQHEDGTLTLGVPDAIDRKYTSAQEVKVMAKDGNMIESGKTYTLGEGASVIFNRLKVHNKISFTVKTASNTDRFGISFVRGTDSASWYSIHVNADEGKANFEKDGDDAKYLFDNKFNIPADNEYRVTIYSDQSVCVTYINDQLSFTNRIYQMQKNPWSLCCYKGEITVSDVQVSTY | not soluble
MGSDKIHHHHHHMTKETATISQLQQDIINNSQKGFPLTSQPYKTIAEQLADVNIVTNELEVFQAIDDLNSQEVLSRVGPVFDHKKAGASTLAALAVPAKDLDKIAGIVNQFDQVNHNYGREHVYNLWFVVTASDMVALNSTIVNIELLTGLPVLVLPMEASYHIDLAFSINVTGIESPTSNQENRPVTFDNNDTTSLTDIEKTALRRAIEKGLPTHLFPYQAIAQQLALSEQQVLMQISLWQEEGLIRRFGLVIKHRKLGYDANAMVVWNIPNENMDAIALKLAKCAPVSLCYQRPRRLPDWPYNLFCMIHGTDRSLVLQQISQITEQLGLESIEKDVLFSFKAYKQHGARYFKTNSKKAKTNNISAGKTENNNDMKKQGQAHG | not soluble
MKITSYVSFLYCLCLMLASPTVQASEVRTAIFEGKPCINPPHVVGNYPATPFLFYIPTSGERPIKWHAENLPKGLKLDKETGIIKGKVVEKGTYKVMLKAENALGTDTQELLINIGDELLLTPPMGWNSWNTFGRHLTEELLLQTADAMVENGMRDLGYAFINIDDFWQLPERGADGHIQIDKTKFPRGIKYVADYLHERGFKLGIYSDAADKTCGGVCGSYGYEEIDARDFASWGVDLLKYDYCNAPAGRVEAMERYEKMGRALRATDRSIVFSICEWGQREPWKWAKKVGGHLWRVSGDIGDLWNRSTDEKGGLRGILNILEINAPLSEYARPGGWNDPDMLVVGIGGKSKSIGYESEGCTNEQYQSHFALWCMMASPLLCGNDVRQMNDSTLQILLNKDLIAINQDPLGIQAERAIRADHYDVWVKPLSDGSKAIACLNRISGPVDVELNVKTVEGLSLDRVYDVIEGSLVAEASTGWVVKLAPGECKVFICKLEHHHHHH | not soluble
MGSDKIHHHHHHMNYKNRKRAYYQENSCMDNFICKNCGCLVVPEGAGTQHRNHCPHCLHSLHVDIIPGDRAADCDANMEPIGVWVRKNGEWAIIHRCTRCGHLSSNRIAADDNSVKLMSIALKPLAQPPFPLERIIEKLEKEETE | not soluble
VSDFKYGALLNITTLSNKVLSLGYEKPFIDSGQARTRLNGPLAEFFLYKTDGIFKTQEQIDNYVTPDGEPIMISGKRPQLGDVKYIDTDNNGQITADDRQFCGSPWAKMQMSLVLNAEWKDFDFSMMWNGQFGNKIYNVSKWQGRLFSDNSNYLRFKKGEEPYQVNQNSDTPRIIYGDQRNSWDADRFLENGSYFRLKNISIGYNLKKEWLKNLGIDKLRLYATGSNLLTFTGYSGLDPDFINTNIWNSGTDSFSYPNTRSVMFGLDLTF | not soluble
EDGYDMWLRYQPIADQTLLKTYQKQIRHLHVAGDSPTINAAAAELQRGLSGLLNKPIVARDEKLKDYSLVIGTPDNSPLIASLNLGERLQALGAEGYLLEQTRINKRHVVIVAANSDVGVLYGSFHLLRLIQTQHALEKLSLSSAPRLQHRVVNHWDNLNRVVERGYAGLSLWDWGSLPNYLAPRYTDYARINASLGINGTVINNVNADPRVLSDQFLQKIAALADAFRPYGIKMYLSINFNSPRAFGDVDTADPLDPRVQQWWKTRAQKIYSYIPDFGGFLVKADSEGQPGPQGYGRDHAEGANMLAAALKPFGGVVFWRAFVYHPDIEDRFRGAYDEFMPLDGKFADNVILQIKNGPIDFQPREPFSALFAGMSRTNMMMEFQITQEYFGFATHLAYQGPLFEESLKTETHARGEGSTIGNILEGKVFKTRHTGMAGVINPGTDRNWTGHPFVQSSWYAFGRMAWDHQISAATAADEWLRMTFSNQPAFIEPVKQMMLVSREAGVNYRSPLGLTHLYSQGDHYGPAPWTDDLPRADWTAVYYHRASKTGIGFNRTKTGSNALAQYPEPIAKAWGDLNSVPEDLILWFHHLSWDHRMQSGRNLWQELVHKYYQGVEQVRAMQRTWDQQEAYVDAARFAQVKALLQVQEREAVRWRNSCVLYFQSVAGRPIPANYEQPEHDLEYYKMLARTTYVPEPWHPASSSRVLK | soluble
HPSIFAATDGHSSRLDVTMGMSYNNRFFASLMYRPTQAVGVSLGMQLGKFYAGYAFEWPTSVLAKASWGSHELLVSYSFPLSNTKNRDAKYKSIRFL | not soluble
MDHHHHHHHHASENLYFQGHMNLDLAYRSFVLGVAGHPQVERLIKHRAKGLVRRYVAGETLEEALKAAEALEREGVHAILDLLGEMVRTEEEARAFQRGLLELVWALAGKPWPKYISLKLTQLGLDLSEDLALALLREVLREAEPRGVFVRLDMEDSPRVEATLRLYRALREEGFSQVGIVLQSYLYRTEKDLLDLLPYRPNLRLVKGAYREPKEVAFPDKRLIDAEYLHLGKLALKEGLYVAFATHDPRIIAELKRYTEAMGIPRSRFEFQFLYGVRPEEQRRLAREGYTVRAYVPYGRDWYPYLTRRIAERPENLLLVLRSLVSG | soluble
MSLTKYIFVTGGVVSSIGKGIVAASLGRLLKNRGLKVTIQKFDPYINVDPGTMSPYQHGEVFVTDDGAETDLDLGHYERFIDINLNKYSNVTTGKIYSEVLRKERKGEYLGATVQVIPHITNEIKEKIMRAAKMTDADVIITEVGGTVGDIESLPFLEALRQMKADMGSDNVMYIHTTLIPYLKAAGEMKTKPTQHSVKELRSLGIQPNILVVRTELPVSQNTKNKLAQFCDVNPEAVIESRDVETLYSIPLALQAQNMDQIVCDHLKLDAPAADMTEWRALEEKVLNLKKKTKIALVGKYVELPDAYISVVEALKHAGFDFDSDIEIDWVDSQELTAENVAERIGSADGILVPGGFGDRGIEGKIEAIRFARENDVPFLGICLGMQMACVEFGRNVVGLEDAGSAETNPDVTNNIIDLMADQENIENLGGTLRLGLYPCKLKKGTKTAAAYGNEDVVQERHRHRYEFNNKYRQLFEENGLVFSGVSPDNRLVEIVEIPEKQFFVACQFHPELISRPNRPQRLIKGFVGAALANKEKGHHHHHH | soluble
MSVAVATLHAAASGAVLRRRRTYIHPQQPAADVCPQACTRICPPPPLPHGLRVRGGHLVRYTACVPAHTGSMSASSTVSDRRVCIFFDCRVAGDGKGYEELRQTVYAQCSQLLTLSYLHYQRSGTTLSATVHLVTHTRVESFATPFCATSTDHPIDSGAAGVISGLRALAAAQPDHSVNACGAAIFGNRMESVLPHVQRALGGSQQRHQLILFCSSYVSHTEATQSLSGLCLDASPHQRLRCILVDWEAVCVTVGELASNVRVYRCSRSARQLQAAMQEILSLFLLPDVRSSRRLGLQLGLQAVPVIATISHYGAFLDGRDTIGSVVATDRASSAAAPMAGGVMHQRLAETNHRHNRANAASVVERDDRDPWSTLHLRAVLEADNIDESFLMGDTWTLALDTSAASTSTLTSSSAPSWPCTASTVALWHAFCNAFLGDALVFTGEETGIEAHRHAMQRHHHFVAYFMPDRTMRVREIVPPELRFVPLPAFPTREGLREQKAYTTEMQRLREQLVSHCACASFSLDALLSSGGHGAASTP | not soluble
MFLSVFELFKIGIGPSSSHTMGPMTAANMFLREIMRCNFLRSSHTGISHIRVYLYGSLAFTGVGHATDRAVILGLLGEEAATVNPDNIDILLEKVTREKKVQPDGHPAYWFNLQSDLIFKRKEVLPGHTNGLAFEGLDADGNVLLRQTYYSIGGGFVVTEDELNCINGNTQSKTSKVPYPFDSARKMLSMAEKSGLSIAEMKRLNEETKMERSALNTGLDNIFSAITKCIDRGLSQEGELPGGLRVSRRAKKLYETLLENQKKNRNYPLLANDWLSVYAIAVNEENAAGGRVVTAPTNGAAGVVPAVLRYYLQFNDNSDQEGIHNFLLTAAAIGGVIKHNASISGAEVGCQGEVGTASSMAAAGLTAVLGGTPAQIENAAEIALEHHLGMTCDPVAGLVQIPCIERNAMGAVKAVTASSLALHGNGKHFVSLDACIETMRQTGHDMSERYKETSKAGLAVNAISC | not soluble
MLPERVLEILREMKRERIKGASWLAKKGAEAFLTLAEELDESLLEDAIMELREEVVKVNPSMASLYNLARFIPVTNRRDILKSRALEFLRRMEEAKRELASIGAQLIDDGDVIITHSFSSTVLEIIRTAKERKKRFKVILTESSPDYEGLHLARELEFSGIEFEVITDAQMGLFCREASIAIVGADMITKDGYVVNKAGTYLLALACHENAIPFYVAAETYKFHPTLKSGDVMLMERDLIRGNVRIRNVLFDVTPWKYVRGIITELGIVIPPRDIQLEHHHHHH | not soluble
